Measured values: patent US20210403593A1 (TIZONA THERAPEUTICS, published 2021)

T1: cynomolgus macaque (Macaca fascicularis) CD39 (Macaca fascicularis, UniProt P49961 7-510 (human entry))
T1 construct: On engineered CHO cells and on primary cyno B cells and monocytes; also called cyno CD39; cCD39
T1 chain: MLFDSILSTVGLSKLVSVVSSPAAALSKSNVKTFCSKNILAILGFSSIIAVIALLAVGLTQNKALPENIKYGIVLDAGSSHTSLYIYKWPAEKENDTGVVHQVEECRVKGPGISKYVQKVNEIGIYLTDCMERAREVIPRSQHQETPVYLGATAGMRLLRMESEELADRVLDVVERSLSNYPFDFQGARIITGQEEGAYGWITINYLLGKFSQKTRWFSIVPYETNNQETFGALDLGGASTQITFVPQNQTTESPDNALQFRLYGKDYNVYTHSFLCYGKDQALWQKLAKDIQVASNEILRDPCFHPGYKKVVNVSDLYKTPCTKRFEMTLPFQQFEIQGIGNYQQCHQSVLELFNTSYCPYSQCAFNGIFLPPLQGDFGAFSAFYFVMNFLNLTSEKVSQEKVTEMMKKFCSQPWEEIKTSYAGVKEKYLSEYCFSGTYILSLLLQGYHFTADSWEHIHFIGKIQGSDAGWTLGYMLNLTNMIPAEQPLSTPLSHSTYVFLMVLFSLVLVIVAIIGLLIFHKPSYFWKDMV

T2: human CD39 (cellular) (human, UniProt P49961 1-510)
T2 construct: Same protein on engineered CHO cells and on cells that express it endogenously; also called hCD39; cellular CD39
T2 sequence: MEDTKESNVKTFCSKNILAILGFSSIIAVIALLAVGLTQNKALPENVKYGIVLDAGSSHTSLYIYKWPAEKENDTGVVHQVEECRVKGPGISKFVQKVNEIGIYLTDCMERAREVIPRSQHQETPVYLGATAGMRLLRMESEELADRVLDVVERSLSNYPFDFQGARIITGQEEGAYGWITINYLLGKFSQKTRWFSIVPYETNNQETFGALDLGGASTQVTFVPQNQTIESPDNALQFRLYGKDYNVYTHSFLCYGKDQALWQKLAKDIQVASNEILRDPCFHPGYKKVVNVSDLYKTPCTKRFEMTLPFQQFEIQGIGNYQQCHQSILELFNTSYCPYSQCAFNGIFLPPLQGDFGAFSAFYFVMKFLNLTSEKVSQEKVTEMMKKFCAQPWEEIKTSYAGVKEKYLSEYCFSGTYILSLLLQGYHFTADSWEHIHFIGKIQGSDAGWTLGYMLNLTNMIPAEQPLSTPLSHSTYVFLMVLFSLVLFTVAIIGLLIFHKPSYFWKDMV

T3: Chimera #4 (Homo sapiens (Human), UniProt P49961 1-510)
T3 construct: Expressed on CHO cells
T3 chain: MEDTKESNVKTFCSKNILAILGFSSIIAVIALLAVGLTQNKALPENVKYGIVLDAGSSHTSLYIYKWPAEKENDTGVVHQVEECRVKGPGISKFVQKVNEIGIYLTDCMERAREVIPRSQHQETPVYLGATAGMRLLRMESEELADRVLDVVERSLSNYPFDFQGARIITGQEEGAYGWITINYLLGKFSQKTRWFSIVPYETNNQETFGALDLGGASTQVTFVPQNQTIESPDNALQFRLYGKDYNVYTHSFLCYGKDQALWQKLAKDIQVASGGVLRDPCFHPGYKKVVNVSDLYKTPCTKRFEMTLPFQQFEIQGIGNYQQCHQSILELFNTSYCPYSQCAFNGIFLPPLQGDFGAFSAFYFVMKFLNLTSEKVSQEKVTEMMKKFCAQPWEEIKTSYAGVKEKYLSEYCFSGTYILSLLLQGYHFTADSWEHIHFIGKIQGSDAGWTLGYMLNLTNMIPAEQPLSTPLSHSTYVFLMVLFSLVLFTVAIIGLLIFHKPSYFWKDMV

T4: Chimera #10 (Homo sapiens (Human), UniProt P49961 1-510)
T4 construct: Expressed on CHO cells
T4 chain: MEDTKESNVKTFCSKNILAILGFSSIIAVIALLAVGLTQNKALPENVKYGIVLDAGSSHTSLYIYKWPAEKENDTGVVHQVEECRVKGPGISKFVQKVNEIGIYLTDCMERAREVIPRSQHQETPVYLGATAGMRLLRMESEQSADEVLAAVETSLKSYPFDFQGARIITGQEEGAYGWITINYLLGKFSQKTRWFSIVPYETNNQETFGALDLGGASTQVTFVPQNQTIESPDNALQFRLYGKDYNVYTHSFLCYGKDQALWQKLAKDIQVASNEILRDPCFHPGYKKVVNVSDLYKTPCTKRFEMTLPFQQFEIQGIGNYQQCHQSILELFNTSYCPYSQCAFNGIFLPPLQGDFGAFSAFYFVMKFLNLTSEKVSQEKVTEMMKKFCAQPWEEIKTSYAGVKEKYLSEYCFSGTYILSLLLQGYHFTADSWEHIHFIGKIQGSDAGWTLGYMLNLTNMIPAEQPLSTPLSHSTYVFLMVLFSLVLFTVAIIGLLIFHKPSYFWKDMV

T5: Chimera #9 (Homo sapiens (Human), UniProt P49961 1-510)
T5 construct: Expressed on CHO cells
T5 chain: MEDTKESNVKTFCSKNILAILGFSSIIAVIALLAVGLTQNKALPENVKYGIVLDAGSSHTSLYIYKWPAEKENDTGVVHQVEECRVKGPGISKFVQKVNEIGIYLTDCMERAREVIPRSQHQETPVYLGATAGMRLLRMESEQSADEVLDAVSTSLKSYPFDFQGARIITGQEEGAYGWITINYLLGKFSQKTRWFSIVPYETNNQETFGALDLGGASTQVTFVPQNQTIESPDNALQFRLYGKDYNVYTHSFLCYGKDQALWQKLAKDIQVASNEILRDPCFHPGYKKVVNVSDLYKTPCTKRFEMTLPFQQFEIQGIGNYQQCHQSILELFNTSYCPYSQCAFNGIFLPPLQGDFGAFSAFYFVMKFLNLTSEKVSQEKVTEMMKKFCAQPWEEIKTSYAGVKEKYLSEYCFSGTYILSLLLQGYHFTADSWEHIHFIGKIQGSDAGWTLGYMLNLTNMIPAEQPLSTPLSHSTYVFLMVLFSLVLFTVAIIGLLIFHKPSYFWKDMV

T6: Chimera #2 (human, UniProt P49961 1-510)
T6 construct: Expressed on CHO cells; also called human-mouse Chimera #2
T6 chain: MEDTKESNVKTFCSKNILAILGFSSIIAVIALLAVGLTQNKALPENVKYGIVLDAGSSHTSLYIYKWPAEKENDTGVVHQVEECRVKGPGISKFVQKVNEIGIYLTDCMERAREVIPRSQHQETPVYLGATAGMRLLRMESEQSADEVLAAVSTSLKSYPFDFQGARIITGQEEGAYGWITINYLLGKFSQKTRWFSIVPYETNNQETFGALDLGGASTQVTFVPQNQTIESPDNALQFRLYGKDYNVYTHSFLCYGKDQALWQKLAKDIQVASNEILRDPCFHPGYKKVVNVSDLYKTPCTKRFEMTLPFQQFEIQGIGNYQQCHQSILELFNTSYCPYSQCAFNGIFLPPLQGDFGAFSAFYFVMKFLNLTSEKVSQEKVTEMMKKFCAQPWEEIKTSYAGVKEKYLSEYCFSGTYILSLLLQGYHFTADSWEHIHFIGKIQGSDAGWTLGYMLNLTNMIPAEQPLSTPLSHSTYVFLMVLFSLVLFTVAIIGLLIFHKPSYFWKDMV


Experiments:
[1] = biological target: T1, cynomolgus macaque (Macaca …); experiment: flow cytometry, 100 nM IgG, MFI on CHO-cCD39 / MFI on parental CHO;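 also: antibodies bound to the cells for 30 min in PBS, then bound IgG was revealed with a fluorescent goat anti-human IgG secondary antibody, 20 min on ice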
Protocol: (§1) 100 nanomolar IgGs (each antibody is indicated as a unique clone number in the FIG.) were incubated at 25° C. for 30 minutes on ice in phosphate buffered saline (PBS) with parental CHO cells or CHO cells engineered to express either human or cynomolgus macaque (Macaca fascicularis) CD39 (CHO CD39 cells). Cells were then washed with ice cold PBS and incubated with a fluorescently labeled goat-anti-human IgG for 20 minutes on ice. Cells were washed and resuspended in ice cold PBS prior to analysis by flow cytometry.

human CD39 (cellular) = biological target: T2, human CD39 (cellular); experiment: flow cytometry, 100 nM IgG, MFI on CHO-hCD39 / MFI on parental CHO;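 also: cells exposed to IgG for 30 min on ice in PBS, bound antibody then revealed with a fluorescent goat anti-human IgG secondary (20 min, on ice)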
Protocol: as §1

Chimera #4 = biological target: T3, Chimera #4; experiment: FACS on CHO cells, 15 ug/ml; human M1-S274 + mouse GGV + human L278-V510
Protocol: (§2) The chimeras were expressed in CHO cells and the ability of anti-human CD39 antibodies to bind the chimeras tested via FACS. In brief, cells were washed and blocked in FACS buffer (PBS/2% FBS) for 30 min on ice. […] After 2 washes, cells were resuspended in FACS buffer and analyzed on BD Fortessa. Data was processed with FlowJo.

Chimera #10 = biological target: T4, Chimera #10; experiment: FACS on CHO cells, 15 ug/ml; Chimera 2 with human E153 ([..])
Protocol: as §2

Chimera #9 = biological target: T5, Chimera #9; experiment: FACS on CHO cells, 15 ug/ml; Chimera 2 with human D150 ([..])
Protocol: The chimeras were expressed in CHO cells and the ability of anti-human CD39 antibodies to bind the chimeras tested via FACS. In brief, cells were washed and blocked in FACS buffer (PBS/2% FBS) for 30 min on ice. […] After 2 washes, cells were resuspended in FACS buffer and analyzed on BD Fortessa. Data was processed with FlowJo. Positive binding was scored as “yes” and lack of binding was scored as “NO” and examples of FACS plots used to generate this table are in FIGS. 14.F and 14.G.

Chimera #2 = biological target: T6, Chimera #2; experiment: FACS on CHO cells; human M1-E142 + mouse Q143-S158 ([..]) + human Y159-V510
Protocol: as §2

Cell Binding (FOB) [1] [fold over background] | Cell Binding (FOB) (human CD39 (cellular)) [fold over background] | binding result (Chimera #4) | binding result (Chimera #10) | binding result (Chimera #9) | binding result (Chimera #2) | Binder
4540 | 1040 |  |  |  |  | 31896 (antibody, V domains shown) VH: QVQLVQSGAEVKKPGSSVKVSCKASGGTFSKLAISWVRQAPGQGLEWMGGIGFGTANYAQKFQGRVTITADESASTAYMELSSLRSEDTAVYYCARGGAKYASTHGMDVWGQGTTVTVSS VL: not shown
4580 | 1090 |  |  |  |  | 31915 (antibody, human IgG4 S228P, kappa, V domains shown) VH: QVQLVQSGAEVKKPGSSVKVSCKASGGTFSSLPISWVRQAPGQGLEWMGGIGFGTANYAQKFQGRVTITADESTSTAYMELSSLRSEDTAVYYCARGGAKYASKWGMDVWGQGTTVTVSS VL: not shown
4650 | 1030 |  |  |  |  | 31891 (antibody, human IgG4 S228P, kappa, V domains shown) VH: QVQLVQSGAEVKKPGASVKVSCKASGYIFKSYEMHWVRQAPGQGLEWMGRINPSVGSTWYAQKFQGRVTMTRDTSTSTVYMELSSLRSEDTAVYYCARGKREGGTEYLRVWGQGTLVTVSS VL: EIVLTQSPGTLSLSPGERATLSCRASQSVSSSYLAWYQQKPGQAPRLLIYYASSRAYGIPDRFSGSGSGTDFTLTISRLEPEDFAVYYCQQYHNAITFGGGTKVEIKR
3570 | 1220 |  |  |  |  | 31430 (antibody, human IgG4 S228P, kappa, V domains shown) VH: QVQLVQSGAEVKKPGASVKVSCKASGYTFKSYEMHWVRQAPGQGLEWMGRINPSGGSTWYAQKFQGRVTMTRDTSTSTVYMELSSLRSEDTAVYYCARGKREGGTEYLRHWGQGTLVTVSS VL: EIVLTQSPGTLSLSPGERATLSCEASQSVSYSYLAWYQQKPGQAPRLLIYGASSRANGIPDRFSGSGSGTDFTLTISRLEPEDFAVYYCQQYHSALTFGGGTKVEIKR

Continued, binder first:

Binder | Cell Binding (FOB) [1] [fold over background] | Cell Binding (FOB) (human CD39 (cellular)) [fold over background] | binding result (Chimera #4) | binding result (Chimera #10) | binding result (Chimera #9) | binding result (Chimera #2)
31873 (antibody, human IgG4 S228P, kappa, V domains shown) VH: QVQLVQSGAEVKKPGSSVKVSCKASGGTFSKYGISWVRQAPGQGLEWMGSIIPEFGIANYAQKFQGRVTITADESTSTAYMELSSLRSEDTAVYYCARESGGYRDHRLGVWGQGTMVTVSS VL: EIVMTQSPATLSVSPGERATLSCRASQSVGSNLAWYQQKPGQAPRLLIYGASTRASGIPARFSGSGSGTEFTLTISSLQSEDFAVYYCQQYLLWPLTFGGGTKVEIKR | 5080 | 1320 | binds |  |  | 
31414 (antibody, human IgG4 S228P, kappa, V domains shown) VH: QVQLVQSGAEVKKPGASVKVSCKASGYTFKSYEMHWVRQAPGQGLEWMGRINPSVGSTWYAQKFQGRVTMTRDTSTSTVYMELSSLRSEDTAVYYCARGKREGGTEYLRNWGQGTLVTVSS VL: EIVLTQSPGTLSLSPGERATLSCRASQSVSSSYLAWYQQKPGQAPRLLIYGASSRATGIPDRFSGSGSGTDFTLTISRLEPEDFAVYYCQQYHSYITFGGGTKVEIKR | 3570 | 1240 | binds | binds | binds | no binding (tested: 15 ug/ml)
31418 (antibody, human IgG4 S228P, kappa, V domains shown) VH: QVQLVQSGAEVKKPGASVKVSCKASGYTFKSYEMHWVRQAPGQGLEWMGRINPSGGSTWYAQKFQGRVTMTRDTSTSTVYMELSSLRSEDTAVYYCARGKREGGTEYLRHWGQGTLVTVSS VL: EIVLTQSPGTLSLSPGERATLSCRASQSVSSSYLAWYQQKPGQAPRLLIYGASSRATGIPDRFSGSGSGTDFTLTISRLEPEDFAVYYCQQYYFYITFGGGTKVEIKR | 3180 | 1080 | binds | binds | binds | no binding (tested: 15 ug/ml)
31415 (antibody, human IgG4 S228P, kappa, V domains shown) VH: QVQLVQSGAEVKKPGASVKVSCKASGYTFTSYQMHWVRQAPGQGLEWMGRINPSGGSTWYAQKFQGRVTMTRDTSTSTVYMELSSLRSEDTAVYYCARGKREGGTEYLRSWGQGTLVTVSS VL: EIVLTQSPGTLSLSPGERATLSCRASQSVSSSYLAWYQQKPGQAPRLLIYGASSRATGIPDRFSGSGSGTDFTLTISRLEPEDFAVYYCQQYHSYITFGGGTKVEIKR | 3360 | 1170 |  |  |  | 
